Results on five molecules are retold here after paper doi:10.1101/313767 (bioRxiv, 2018).

The target of assay [1] is T1, TRIB1(84–372) (human, UniProt Q96RU8 84-372).
T1 sequence: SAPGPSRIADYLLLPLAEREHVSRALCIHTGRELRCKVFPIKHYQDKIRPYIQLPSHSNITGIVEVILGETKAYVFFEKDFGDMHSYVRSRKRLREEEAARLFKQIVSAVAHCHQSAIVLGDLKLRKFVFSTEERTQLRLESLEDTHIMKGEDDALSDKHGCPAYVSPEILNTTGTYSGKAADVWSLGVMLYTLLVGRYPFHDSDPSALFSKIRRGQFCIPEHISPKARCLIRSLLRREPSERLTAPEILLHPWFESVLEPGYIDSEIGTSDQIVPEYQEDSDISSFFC
Briefly: ITC. For orientation: Isothermal titration calorimetry measures the heat released or taken up as one component is titrated into another.

A further assay addresses T2, WT GST-TRIB1(84–372) (human, UniProt Q96RU8 84-372).
T2 sequence: T1 sequence
Briefly: pull-down.

Assay [2] addresses T3, TRIB1(84–343), the pseudokinase part of the crystallised fusion (human, UniProt Q96RU8 84-343).
T3 sequence: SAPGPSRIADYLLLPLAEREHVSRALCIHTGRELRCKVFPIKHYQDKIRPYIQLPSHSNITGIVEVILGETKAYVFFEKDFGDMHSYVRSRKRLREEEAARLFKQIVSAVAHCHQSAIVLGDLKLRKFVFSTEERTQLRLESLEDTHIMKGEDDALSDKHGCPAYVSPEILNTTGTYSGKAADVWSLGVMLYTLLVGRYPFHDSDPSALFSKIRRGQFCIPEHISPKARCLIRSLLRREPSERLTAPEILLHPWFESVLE
Briefly: crystal structure.

The target of assay [3] is T1, TRIB1(84–372). Kind of assay: differential scanning fluorimetry. A general note: DSF heats the sample and reads unfolding from a dye or from intrinsic fluorescence.

For GDMCEHEASIDLSAYIESGEEQL [C/EBPε(31–53) fused to maltose-binding protein], the binding result with TRIB1(84–372) [1] was “binds”.

Regarding GGICEHETSIDISAYIDPAAFND [His6MBP-C/EBPα(53–75)], the binding result with WT GST-TRIB1(84–372) and with TRIB1(84–372) [1] was “binds” throughout.

Turning to PAMYDDESAIDFSAYIDSMAAVP [C/EBPδ(50–72) fused to maltose-binding protein], the binding result with TRIB1(84–372) [1] is “binds”.

With GGICEHETSIDISAYIDPAAFND [C/EBPα(53–75), the degron part of the crystallised fusion], the binding result in assay [2] was “binds”.

As for GGICEHETSIDISAYIDPAAFND [C/EBPα peptide (53–75)], the binding result with TRIB1(84–372) [3] is “binds”.
